Test results as given in publication PMC3416671, “Neuronal RING finger protein 11 (RNF11) regulates canonical NF-κB signaling” (Journal of Neuroinflammation, 2012).

T1: endogenous RNF11 (murine primary cortical neurons) (mouse (endogenous in primary cortical …, UniProt Q9QYK7 1-154))
T1 construct: RING finger protein 11 (RNF11), endogenous in primary cortical neurons of C57BL/6 mice; also called RING finger protein 11; source: endogenous, murine primary cortical neuron lysate
T1 sequence (looked up): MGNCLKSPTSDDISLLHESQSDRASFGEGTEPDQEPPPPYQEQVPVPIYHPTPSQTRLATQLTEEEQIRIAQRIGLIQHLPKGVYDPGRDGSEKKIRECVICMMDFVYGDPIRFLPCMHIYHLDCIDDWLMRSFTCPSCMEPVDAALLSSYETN

B1: endogenous A20 (murine primary cortical neurons) (natural protein, UniProt Q60769 1-775, looked up)
chain: MAEQLLPQALYLSNMRKAVKIRERTPEDIFKPTNGIIYHFKTMHRYTLEMFRTCQFCPQFREIIHKALIDRSVQASLESQKKLNWCREVRKLVALKTNGDGNCLMHAACQYMWGVQDTDLVLRKALCSTLKETDTRNFKFRWQLESLKSQEFVETGLCYDTRNWNDEWDNLVKMASADTPAARSGLQYNSLEEIHIFVLSNILRRPIIVISDKMLRSLESGSNFAPLKVGGIYLPLHWPAQECYRYPIVLGYDSQHFVPLVTLKDSGPELRAVPLVNRDRGRFEDLKVHFLTDPENEMKEKLLKEYLIVMEIPVQGWDHGTTHLINAAKLDEANLPKEINLVDDYFELVQHEYKKWQENSDQARRAAHAQNPLEPSTPQLSLMDIKCETPNCPFFMSVNTQPLCHECSERRQKNQSKLPKLNSKLGPEGLPGVGLGSSNWSPEETAGGPHSAPPTAPSLFLFSETTAMKCRSPGCPFTLNVQHNGFCERCHARQINASHTADPGKCQACLQDVTRTFNGICSTCFKRTTAEPSSSLTSSIPASCHQRSKSDPSQLIQSLTPHSCHRTGNVSPSGCLSQAARTPGDRAGTSKCRKAGCMYFGTPENKGFCTLCFIEYRENKQSVTASEKAGSPAPRFQNNVPCLGRECGTLGSTMFEGYCQKCFIEAQNQRFHEARRTEEQLRSSQHRDMPRTTQVASRLKCARASCKNILACRSEELCMECQHLSQRVGSVAHRGEPTPEEPPKQRCRAPACDHFGNAKCNGYCNECYQFKQMYG
notes: A20 (TNF-α-induced protein 3, TNFAIP3), endogenous in primary cortical neurons of C57BL/6 mice; also called TNFAIP3; source: endogenous, murine primary cortical neuron lysate
B2: endogenous Itch (murine primary cortical neurons) (natural protein)
chain: not shown
notes: E3 ligase Itch (also known as AIP4), endogenous in primary cortical neurons of C57BL/6 mice; also called AIP4; source: endogenous, murine primary cortical neuron lysate

Biological target: T1, endogenous RNF11 (murine primary …)
Assay: co-IP; lysates of murine primary cortical neurons stimulated with 10 ng/ml TNF-α for 0 or 30 minutes; IP with RNF11 antibody; control IP with antibody omitted; immunoblot with anti-A20 and Itch; densitometry normalised to input, 0 minutes set at 100%
Conditions: partners not purified

| Binder | A20 immunoreactivity in RNF11 immunoprecipitates after 30 minutes of TNF-α, relative to 0 minutes (100%) | Itch immunoreactivity in RNF11 immunoprecipitates after 30 minutes of TNF-α, relative to 0 minutes (100%) |
| --- | --- | --- |
| B1 | 129% | – |
| B2 | – | 166% |
